Reference: patent US20060210655A1, “Bioactive compositions, natural methods of producing them and computational methods for designing natural production processes” (priority 2004, published 2006)
Each block holds one molecule with its values, some of them ahead of it.

Assays:
Y2-GPCR = target: T1, Y2-GPCR (Homo sapiens, UniProt P49146); experiment: competitive binding assay against PYY22-36 on Y2-GPCR
T1 sequence (P49146 1-381): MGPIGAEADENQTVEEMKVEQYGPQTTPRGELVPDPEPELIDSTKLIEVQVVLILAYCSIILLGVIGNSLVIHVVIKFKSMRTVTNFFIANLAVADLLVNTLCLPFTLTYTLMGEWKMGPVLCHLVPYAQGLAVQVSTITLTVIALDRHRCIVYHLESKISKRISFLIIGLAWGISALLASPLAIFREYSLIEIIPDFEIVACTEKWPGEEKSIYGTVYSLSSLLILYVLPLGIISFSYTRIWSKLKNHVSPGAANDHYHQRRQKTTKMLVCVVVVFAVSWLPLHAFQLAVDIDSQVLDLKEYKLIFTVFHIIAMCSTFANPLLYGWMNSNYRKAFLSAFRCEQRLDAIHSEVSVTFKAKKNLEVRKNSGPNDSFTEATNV
Method: The peptides derived from the proteins AtRGP2, OsRGP1 and OsBiP were synthesized in 5 mg quantities at and purified to a purity of above about 90%. The peptides were tested in a competitive binding assay against PYY^22-36 for binding to the GPCR receptor.
In-vitro receptor-based screening of receptor subtypes Y1, Y2, and Y3 was performed according to protocols known in the art. (Munoz et al., Mol. Cell. Endocrinol. 107, 77 (1995), Fuhlendorf et al., PNAS 87, 182 (1990)) Screening of OsBiP, ZMRGP1 and AtRGP1 was conducted on Y2-GPCR as described above using known methods and activity was measured as the percentage of inhibition of binding of the endogenous ligand PYY^22-36 sequence. The PYY^22-36 sequence was used as a positive control. Of the peptides tested, the one derived from AtRGP1 protein was able to inhibit binding of PYY^22-36 by 20-40% when 10 μM concentration of both the PYY^22-36 and […] peptide were used in the binding assay. […] In vivo tissue-based screening on cultures of rat colon cells can be carried out according to known protocols, such as described in Dumont et al., Eur. J. Pharmacol. 238, 37 (1993).

CCK-B receptor = target: T2, CCK-B receptor (Homo sapiens, UniProt P32239); experiment: competitive binding assay against CCK-8 for binding to the CCK-B GPCR receptor; details: for inhibition of CCK-8 binding to the CCK-B receptor: peptides purified from trypsin hydrolysate, 10 μM; for inhibition of binding of the ligand CCK-8 to CCK-B receptor: synthetic peptides, 10 μM concentration
T2 sequence (P32239 1-447): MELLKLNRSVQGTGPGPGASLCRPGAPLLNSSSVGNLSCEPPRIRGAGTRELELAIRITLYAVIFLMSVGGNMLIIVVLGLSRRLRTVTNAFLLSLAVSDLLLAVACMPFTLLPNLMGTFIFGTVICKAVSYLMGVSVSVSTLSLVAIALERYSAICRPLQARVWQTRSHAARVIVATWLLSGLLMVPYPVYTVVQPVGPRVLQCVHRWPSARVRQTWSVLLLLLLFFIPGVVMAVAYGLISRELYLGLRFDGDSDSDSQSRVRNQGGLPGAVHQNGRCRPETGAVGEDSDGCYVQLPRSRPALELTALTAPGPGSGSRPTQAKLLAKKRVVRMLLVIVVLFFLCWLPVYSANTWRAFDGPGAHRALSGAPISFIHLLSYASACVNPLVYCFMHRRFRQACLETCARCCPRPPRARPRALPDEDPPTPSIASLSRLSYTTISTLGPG
Method: Oryzacystatin is a cystein proteinase inhibitor protein. […] The peptides […], PWMDFK and […] were synthesized in 5 mg quantities and purified to a purity of above about 90%. The peptides were tested in a competitive binding assay against CCK-8 for binding to the CCK-B GPCR receptor.
In-vitro receptor-based screening of receptor subtypes CCK-A and CCK-B was performed according to protocols known in the art. The binding activity of peptides […], PWMDFK and […] on CCK-A and CCK-B GPCR was measured as the percentage of inhibition of binding of the endogenous ligand CCK-8 sequence. The CCK-8 sequence was used as a positive control in this assay. […] None of the peptides tested activated CCK-A receptor at concentrations as high as 10 μM, probably due to the lack of sulfonation, a chemical modification required for agonizing the CCK-A receptor.
Hydrolysates were generated from the recombinantly expressed and purified oryzacystatin protein which was isolated from Oryza sativa. Trypsin was used to hydrolyze 10 mg of each sample using standard conditions. […] Again the hydrolysate and the two purified peptides were submitted to receptor-based screening. The hydrolysate itself inhibited CCK-8 binding to the CCK-B receptor by 21% at a 100 μM hydrolysate concentration, while the purified peptides, […] and PWMDFK, inhibited CCK-8 binding by 16%, and 14% at a 10 μM concentrations.
A final optimization of the hydrolysis by the combined consecutive action of trypsin and limited carboxypeptidase digestion was carried out with the goal of obtaining the peptides […] and PWMDF, resulting from the removal of the C-terminal lysine residue.

[1] = obese or nonobese subjects, cited from earlier work
[2] = target: T3, Y2 G-protein-coupled receptor; experiment: competitive receptor binding assay on Y2-GPCR against PYY22-36, both peptides at 10 µM
T3 sequence (P49146 whole entry, species assumed, looked up): T1 sequence (P49146 1-381)

[3] = target: T4, CCK-B GPCR receptor (Homo sapiens (Human)) (UniProt P32239); experiment: competitive receptor binding assay against CCK-8 on CCK-B receptor, synthetic peptide at 10 µM
T4 sequence: T2 sequence (P32239 1-447)

Molecule: PYY: natural hormone produced by endocrine L-cells in the gut; agonist of Y2 receptors
cumulative 24-hour caloric intake ([1]; after 90-minute intravenous infusion): significant decrease
reduction of caloric intake ([1]; two hours after a 90-minute intravenous infusion): 30%

Molecule: YSCRYFGYLVSKKKY (listed as Arabidopsis thaliana) [AtRGP1, peptide derived from Arabidopsis thaliana amylogenin protein RGP]
percentage of inhibition of binding of PYY22-36 (Y2-GPCR; Y2-GPCR, 10 μM concentration of both PYY22-36 and peptide): 20-40%

Molecule: YSCRYFGYLVSKKKY [AtRGP2 peptide fragment]
% inhibition of binding of PYY22-36 [2]: 20 to 40%

Continued, values first:

binding to the Y2 receptor (Y2-GPCR; qualitative): shown to bind the Y2 receptor
Molecule: FDGVDFSEPLTRARF (listed as Oryza sativa) [OsBIP]

inhibition of CCK-8 binding to the CCK-B receptor (CCK-B receptor): 14%
inhibition of binding of the ligand CCK-8 to CCK-B receptor (CCK-B receptor): 16%
Molecule: PWMDFK (listed as Oryza sativa) [Oryza sativa oryzacystatin fragment, trypsin]

inhibition of binding of the ligand CCK-8 to CCK-B receptor (CCK-B receptor): 5%
Molecule: PWMDFKELQEFK (listed as Oryza sativa) [Oryza sativa oryzacystatin fragment, trypsin]

inhibition of CCK-8 binding to the CCK-B receptor (CCK-B receptor): 16%
inhibition of binding of the ligand CCK-8 to CCK-B receptor (CCK-B receptor): 27%
Molecule: VWEKPWMDFK (listed as Oryza sativa) [Oryza sativa oryzacystatin fragment, trypsin]

% inhibition of binding of CCK-8 [3]: 5%
Molecule: PWMDFKELQEFK [Oryza sativa oryzacystatin hydrolyzed with trypsin - synthetic peptide 3]
